According to US7902341B2, “Methods and compositions for modulating somatolactogenic functions” (Trustees of the University of Pennsylvania, priority 1999, dated 2011):

B1: Myc-tagged PRL: recombinant human PRL with myc-tag expressed in Drosophila S2 cells (protein)
chain: LPICPGGAARCQVTLRDLFDRAVVLSHYIHNLSSEMFSEFDKRYTHGRGFITKAINSCHTSSLATPEDKEQAQQMNQKDFLSLIVSILRSWNEPLYHLVTEVRGMQEAPEAILSKAVEIEEQTKRLLEGMELIVSQVHPETKENEIYPVWSGLPSLQMADEESRLSAYYNLLHCLRRDSHKIDNYLKLLKCRIIHNNNC
modifications: left off: small tags and cut ends
notes: recombinant human PRL with myc-tag expressed in Drosophila S2 cells
B2: PRL: human prolactin, pituitary isolated or recombinant (protein)
chain: B1 chain
modifications: left off: small tags and cut ends
notes: human prolactin, pituitary isolated or recombinant

System: Nb2 cells
Assay: Nb2 cell proliferation (3H-thymidine) to assess CypB modulation of somatolactogenic action
Format: cell-based, rat
Protocol: The effect of exogenous CypB on PRL-driven proliferation was examined with the rat Nb2 T-cell and the human T47D breast cancer line. […] This dose-dependent biphasic effect was most prominent at physiologic concentrations (5-10 mM) of CypB and PRL (50 pM) found in human serum. […] To determine the effect of CypB on cellular growth driven by the larger family of cytokines, to which PRL belongs, proliferation driven by interleukin-2 (IL-2), IL-3 and GH was examined.
Nb2-cells (5×10^4; PRL-dependent, rat T-lymphoma) were plated in each well of 96 well plates in a defined DMEM-serum free medium (0.1 mM 2-mercaptoethanol, 1% penicillin/streptomycin, and 1% ITS+(Calbiochem)). Cells were rested for 24 hours at 37° C. in this defined medium in the absence of PRL before the addition of 5-500 pM PRL (either as human pituitary isolated PRL, National Hormone and Pituitary Program, NIDDK; recombinant human PRL from E. coli, Genzyme; or recombinant human PRL from Drosophila S2 cells) alone or premixed with 1-2000 fold excess of purified CypB. Parallel studies were performed using human pituitary-derived GH (National Hormone and Pituitary Program, NIDDK). Cultures were incubated for 48 hours at 37° C. and proliferation was evaluated by the addition of 0.5 μCi of ^3H-thymidine for four hours followed by harvesting and scintillography. […]

Molecule | bioactivity in Nb2 bioassays (protein secreted by Drosophila S2 cells) | PRL concentration at which the sigmoid Nb2 growth curve plateaus (Nb2 cells stimulated with PRL alone)
B1 | functionally bioactive | 
B2 |  | approximately 2 ng PRL/ml
